We go through one protein from FireProtDB (doi:10.1021/bi9909041).

For this data set the following is noted: Escherichia coli (strain K12), pH 7.8, 25 °C, Urea, Potassium phosphate 10 mM, transition: 2, whole UniProt chain shown.

Several values for one entry are separate records, joined by “and”; a condition that tells them apart may be missing. Equal entries are not always repeated.

B1: Tryptophan synthase alpha chain wild type, P0A877 (protein)
chain: MERYESLFAQLKERKEGAFVPFVTLGDPGIEQSLKIIDTLIEAGADALELGIPFSDPLADGPTIQNATLRAFAAGVTPAQCFEMLALIRQKHPTIPIGLLMYANLVFNKGIDEFYAQCEKVGVDSVLVADVPVEESAPFRQAALRHNVAPIFICPPNADDDLLRQIASYGRGYTYLLSRAGVTGAENRAALPLNHLVAKLKEYNAAPPLQGFGISAPDQVKAAIDAGAAGAISGSAIVKIIEQHINEPEKMLAALKVFVQPMKAATRS
As to B1, where the note is “Absorbance”, the denaturant m value was 1.12 kcal/mol/M, the “denaturant midpoint (higher = more stable)” value (shortened to “denaturant midpoint”) was 3.73 M and the unfolding free energy was determined as 4.16 kcal/mol. Where the note is “CD”, the denaturant m value is 1.11 kcal/mol/M and 1.09 kcal/mol/M; the “denaturant midpoint” value is 3.67 M and 3.65 M; the unfolding free energy was 4.08 kcal/mol and 3.96 kcal/mol. Moreover, where the note is “Fluorescence”, the denaturant m value came to 1.09 kcal/mol/M, the “denaturant midpoint” value worked out at 3.81 M and the unfolding free energy turned out to be 4.14 kcal/mol.
